Experimental data reported in paper doi:10.1101/2025.09.12.675771 (bioRxiv, 2025).

Columns and labels:
[1] = target: SARS-CoV-2 RBD (residues 332-527), BQ.1.1 variant (SARS-CoV-2, Omicron BQ.1.1, R346T | K444T | N460K)
[2] = target: SARS-CoV-2 RBD (residues 332-527), Lambda variant (SARS-CoV-2, Lambda (C.37), L452Q | F490S)

B1: R1-32-Q61E-WT (antibody, V domains shown)
VH: EVQLVQSGAEVKKPGSSVKVSCKASGGTFSSYFISWVRQAPGQGLEWMGGIIPILGIADYAEKFQGRVTITADKSTSTAYMELSSLRSEDTAVYYCARENGYSGYGAAYNFDLWGRGTLVTVSS
VL: QSVLTQPPSVSGAPGQRVTISCTGSDSNIGAGYDVHWYQQLPGTAPKLLIYGNSNRPSGVPDRFSGSKSGTSASLAITGLQAEDEADYYCQSYDSSLSGSVFGGGTKLTVL
[1]
  binding result: binds
[2]
  binding result: binds
